Test results reported in paper PMC3412864 (PLoS ONE, 2012).

B1: Gluconacetobacter hansenii chromate reductase (Gh-ChrR) (enzyme, Gluconacetobacter hansenii ATCC 23769)
chain: MTTTSPLHFVTLLGSLRKASFNAAVARALPEIAPEGIAITPLGSIGTFPHYSQDVQEEGFPAPVLTMAQQIATADAVVIVTPEYNYSVPGVLKNAIDWLSRVSPQPLAGKPVALVTASPGMIGGARAQYHLRQSLVFLDAYVLNRPEAMIGQVTGKVDAQTLELSDVATREFLARQLDALAALARTLSPRAIT
notes: Gh-ChrR, NAD(P)H-dependent FMN reductase from Gluconacetobacter hansenii ATCC 23769 (ZP_06834583); 193 native residues; codon-optimised synthetic gene in pJexpress411; Monomer 21.3 kDa (193 native residues plus a six-residue C-terminal poly-histidine tag); In the crystal 5-6 N-terminal and 7-9 C-terminal residues are not seen; also called putative chromate reductase; source: E. coli BL21(DE3), …
B2: Gh-ChrR (Novacetimonas hansenii ATCC 23769; S118A) (protein)
chain: MTTTSPLHFVTLLGSLRKASFNAAVARALPEIAPEGIAITPLGSIGTFPHYSQDVQEEGFPAPVLTMAQQIATADAVVIVTPEYNYSVPGVLKNAIDWLSRVSPQPLAGKPVALVTAAPGMIGGARAQYHLRQSLVFLDAYVLNRPEAMIGQVTGKVDAQTLELSDVATREFLARQLDALAALARTLSPRAIT
B3: Gh-ChrR (Novacetimonas hansenii ATCC 23769; R101A) (protein)
chain: MTTTSPLHFVTLLGSLRKASFNAAVARALPEIAPEGIAITPLGSIGTFPHYSQDVQEEGFPAPVLTMAQQIATADAVVIVTPEYNYSVPGVLKNAIDWLSAVSPQPLAGKPVALVTASPGMIGGARAQYHLRQSLVFLDAYVLNRPEAMIGQVTGKVDAQTLELSDVATREFLARQLDALAALARTLSPRAIT
B4: Gh-ChrR (Novacetimonas hansenii ATCC 23769; N85A) (protein)
chain: MTTTSPLHFVTLLGSLRKASFNAAVARALPEIAPEGIAITPLGSIGTFPHYSQDVQEEGFPAPVLTMAQQIATADAVVIVTPEYAYSVPGVLKNAIDWLSRVSPQPLAGKPVALVTASPGMIGGARAQYHLRQSLVFLDAYVLNRPEAMIGQVTGKVDAQTLELSDVATREFLARQLDALAALARTLSPRAIT

How the values were obtained:
[1] = target: T1, Gh-ChrR (Novacetimonas hansenii, UniProt D5QFC5); assay: chromate reduction rate; format: biochemical; conditions: 200 µM NADPH, 5 µM enzyme, 50 mM Tris-HCl, 100 mM NaCl, pH 7.4
T1 construct: gene GXY_09224; full length (193 native residues) plus C-terminal 6xHis tag kept; E. coli BL21(DE3), codon-optimised

[2] = target: T1, Gh-ChrR; assay: X-ray crystal structure, […] Å; absorbance stoichiometry; format: binding; conditions: non-covalent, one FMN per monomer, co-purified
[3] = target: T1, Gh-ChrR; assay: initial velocities, ordered bireactant model with substrate inhibition; format: biochemical; conditions: competitive with chromate, dead-end FMN-enzyme-NADH complex
Source text: initial velocities, ordered bireactant model with substrate inhibition on Gh-ChrR | Ki is the dissociation constant of the dead-end product of FMN-Gh-ChrR-NADH

[4] = substrate: [O]=[Cr](=[O])([OH])[OH]; assay: purified protein; conditions: 100 µM NADH, 5 µM enzyme, 50 mM Tris-HCl, 100 mM NaCl, pH 7.4, 37°C, aerobic
[5] = substrate: NC(=O)C1=CN([C@@H]2O[C@H](COP(=O)(O)OP(=O)(O)OC[C@H]3O[C@@H](n4cnc5c(N)ncnc54)[C@H](O)[C@@H]3O)[C@@H](O)[C@H]2O)C=CC1; assay: initial velocities, ordered bireactant model with substrate inhibition; format: biochemical, Novacetimonas hansenii; conditions: varied chromate and NADH, Tris-HCl pH 7.4
Source text: initial velocities, ordered bireactant model with substrate inhibition on […] | KmB is the Michaelis-Menten constant of NADH

[6] = target: the molecule itself; assay: crystal structure; hanging-drop vapor diffusion at room temperature; protein ~9 mg/mL in 20 mM Tris-HCl, 150 mM NaCl, pH 7.4; precipitant 0.5% PEG4000, 10% isopropanol, 0.1 M HEPES pH 7.5; 2.25 Å; four monomers in the asymmetric unit

Molecule | Km [4] [µM] | Vmax [4] [µmol/min/mg] | kcat [4] [s⁻¹] | kcat/Km [4] [M⁻¹ s⁻¹] | also measured
NC(=O)C1=CN([C@@H]2O[C@H](COP(=O)(O)OP(=O)(O)OC[C@H]3O[C@@H](n4cnc5c(N)ncnc54)[C@H](OP(=O)(O)O)[C@@H]3O)[C@@H](O)[C@H]2O)C=CC1 [NADPH] | – | – | – | – | chromate reduction rate [1]: Both NADH and NADPH support maximal chromate reduction by Gh-ChrR
Cc1cc2nc3c(=O)[nH]c(=O)nc-3n(C[C@H](O)[C@H](O)[C@H](O)COP(=O)(O)O)c2cc1C [FMN] | – | – | – | – | X-ray crystal structure, 2.25 Å; absorbance stoichiometry [2]: Gh-ChrR crystallized with one molecule of FMN associated with each protein monomer
NC(=O)C1=CN([C@@H]2O[C@H](COP(=O)(O)OP(=O)(O)OC[C@H]3O[C@@H](n4cnc5c(N)ncnc54)[C@H](O)[C@@H]3O)[C@@H](O)[C@H]2O)C=CC1 [NADH] | – | – | – | – | Ki [3]: 3.5 ± 0.7 µM
B1 | 240 ± 70 | 0.75 | 0.25 | 1000 | Km [5]: 7 ± 1 µM; stoichiometry N [6]: 4
B2 | 600 ± 20 | 0.9 | 0.3 | 500 | –
B3 | 1900 ± 600 | 0.24 | 0.08 | 40 | –
B4 | 600 ± 100 | 0.16 | 0.053 | 90 | –
